Experimental data: the supplement of paper PMC10567573
± gives the standard deviation.

Experiment: protein stability index of a GFP-peptide fusion (GPS, HEK-293T) (PSI 1-6); higher = more stable
Conditions: c terminus: a fixed tail appended
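Note: 24-mer peptide tiles fused after GFP, lentivirally expressed, FACS-sorted into six equal bins by GFP/DsRed ratio, decoded by Illumina sequencing, PSI is the read-weighted mean bin number.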

Q: With NAAKTCPTMPALFSDHTFRHYAYL [INTS4] as the sequence, how does the protein stability index (treatment: DMSO) read?
A: 2.03 ± 0.42

Q: And the protein stability index (treatment: MLN4924 1 uM, 8 h)?
A: 2.13 ± 0.29

Q: Which protein stability index (treatment: DMSO) does the source give for YDTFHTVADMMYFCQMLAVVETIN [HACD3] here?
A: 3.08 ± 0.35

Q: And the protein stability index (treatment: MLN4924 1 uM, 8 h)?
A: 3.17 ± 0.64

Q: What does the source list for DAEGLAARDVQKIIGDYFSDQDPR [INTS4]?
A: protein stability index (treatment: DMSO): 4.95 ± 0.15; protein stability index (treatment: MLN4924 1 uM, 8 h): 4.86 ± 0.32

Q: Which protein stability index (treatment: DMSO) does the source give for MEDSQETSPSSNNSSEELSSALHL [NECAB1] here?
A: 5.57 ± 0.18

Q: And the protein stability index (treatment: MLN4924 1 uM, 8 h)?
A: 5.55 ± 0.18

Q: With LLLSFWKETDPLTFNFISSLKAIC [PLD5] as the sequence, how does the protein stability index (treatment: DMSO) read?
A: 3.47 ± 0.96

Q: What about the protein stability index (treatment: MLN4924 1 uM, 8 h) of the same sequence?
A: 2.44 ± 0.12

Q: For AGNRNSMVIHIPEEPRPSRPRYKA [KCNK9], which protein stability index (treatment: DMSO) is on record?
A: 4.14 ± 0.35

Q: What about the protein stability index (treatment: MLN4924 1 uM, 8 h) of the same sequence?
A: 4.24 ± 0.13

Q: For CYYQPAPYVSDGNFSNYYVAHPPV [TENT5C], which protein stability index (treatment: DMSO) is on record?
A: 2.24 ± 0.3

Q: And the protein stability index (treatment: MLN4924 1 uM, 8 h)?
A: 2.43 ± 0.45

Q: For LVKKVEEDEAGGRFVAFSGEGQSL [UFD1], which protein stability index (treatment: DMSO) is on record?
A: 4.71 ± 0.14

Q: What about the protein stability index (treatment: MLN4924 1 uM, 8 h) of the same sequence?
A: 4.81 ± 0.18

Q: With TSSVSCALDEAAAALTRMRAESTA [ANKRD17] as the sequence, how does the protein stability index (treatment: DMSO) read?
A: 3.06 ± 0.42

Q: And the protein stability index (treatment: MLN4924 1 uM, 8 h)?
A: 3.05 ± 0.32

Q: For DPSKLDSGKELKIDIIPNPQERTL [HSP90AB1], which protein stability index (treatment: DMSO) is on record?
A: 5.15 ± 0.11

Q: And the protein stability index (treatment: MLN4924 1 uM, 8 h)?
A: 5.31 ± 0.078

Q: Which protein stability index (treatment: DMSO) does the source give for NGNGKNGGLEHVPSSSSIHNGDME [BNIP3L] here?
A: 5.28 ± 0.2

Q: What about the protein stability index (treatment: MLN4924 1 uM, 8 h) of the same sequence?
A: 5.28 ± 0.24

Q: Which results are given for AEHWTKEHCGAVCFVKDNPQKSYF [WAS]?
A: protein stability index (treatment: DMSO): 2.92 ± 0.39; protein stability index (treatment: MLN4924 1 uM, 8 h): 2.98 ± 0.23

Q: For PPQPMVPLAVENQAGGEGAGGELG [PBXIP1], which protein stability index (treatment: DMSO) is on record?
A: 5.52 ± 0.11

Q: And the protein stability index (treatment: MLN4924 1 uM, 8 h)?
A: 5.51 ± 0.12

Q: With GSGAASSSGEDKENDGFVFKMPWK [CDC25B] as the sequence, how does the protein stability index (treatment: DMSO) read?
A: 4.025 ± 0.022

Q: And the protein stability index (treatment: MLN4924 1 uM, 8 h)?
A: 4.37 ± 0.34

Q: With EDHIDDAKYCGHLYGLGSGSSYVQ [CNOT7] as the sequence, how does the protein stability index (treatment: DMSO) read?
A: 3.38 ± 0.16

Q: What about the protein stability index (treatment: MLN4924 1 uM, 8 h) of the same sequence?
A: 3.41 ± 0.26

Q: Which protein stability index (treatment: DMSO) does the source give for SNSRQLKWLSCGFMLEIVTPTSLS [FBXO33] here?
A: 3.39 ± 0.73

Q: And the protein stability index (treatment: MLN4924 1 uM, 8 h)?
A: 2.83 ± 0.67

Q: What does the source list for ERSDPVEQGKPVIPAAVLAGFTGS [ETS2]?
A: protein stability index (treatment: DMSO): 4.59 ± 0.23; protein stability index (treatment: MLN4924 1 uM, 8 h): 4.7 ± 0.31

Q: For IPTVKPLKPRPEPPKKPSNWRRKH [ZC2HC1A], which protein stability index (treatment: DMSO) is on record?
A: 4.2 ± 0.24

Q: What about the protein stability index (treatment: MLN4924 1 uM, 8 h) of the same sequence?
A: 4.24 ± 0.11

Q: What does the source list for METSPSEEDSFYRSSYPQQQGLGA [TBX5]?
A: protein stability index (treatment: DMSO): 4.37 ± 0.073; protein stability index (treatment: MLN4924 1 uM, 8 h): 4.47 ± 0.17

Q: What does the source list for ELSSVHPPHYFFTYRIRIEMSKDA [FBXO3]?
A: protein stability index (treatment: DMSO): 2.15 ± 0.21; protein stability index (treatment: MLN4924 1 uM, 8 h): 2.18 ± 0.42

Q: For DSEEEVIERANNVKYGLAATVWSS [ALDH8A1], which protein stability index (treatment: DMSO) is on record?
A: 4.03 ± 0.17

Q: And the protein stability index (treatment: MLN4924 1 uM, 8 h)?
A: 4.15 ± 0.17

Q: For GRYSVHNAGISFSVKKQGETVADV [MLH1], which protein stability index (treatment: DMSO) is on record?
A: 3.79 ± 0.25

Q: And the protein stability index (treatment: MLN4924 1 uM, 8 h)?
A: 3.85 ± 0.37

Q: With ELKMRAIQAEERLDMEKRRCRQSL [LRRC45] as the sequence, how does the protein stability index (treatment: DMSO) read?
A: 3.92 ± 0.22

Q: What about the protein stability index (treatment: MLN4924 1 uM, 8 h) of the same sequence?
A: 4.13 ± 0.11

Q: For PREQAARFCSEIKSSKYGEGHQAW [SEPHS2], which protein stability index (treatment: DMSO) is on record?
A: 3.36 ± 0.12

Q: What about the protein stability index (treatment: MLN4924 1 uM, 8 h) of the same sequence?
A: 3.52 ± 0.19

Q: Which results are given for KEHPDVQLLEDAILIIQGVLSDIN [NET1]?
A: protein stability index (treatment: DMSO): 2.49 ± 0.73; protein stability index (treatment: MLN4924 1 uM, 8 h): 2.47 ± 0.23

Q: What does the source list for DMWRSENQNRAYVTLAAHFLGLGA [ZBED1]?
A: protein stability index (treatment: DMSO): 2.13 ± 0.24; protein stability index (treatment: MLN4924 1 uM, 8 h): 2.01 ± 0.4

Q: Which protein stability index (treatment: DMSO) does the source give for FKDSAGKSPTGLKLKNDTENHQPV [ZNF75A] here?
A: 4.88 ± 0.22

Q: What about the protein stability index (treatment: MLN4924 1 uM, 8 h) of the same sequence?
A: 5.03 ± 0.18

Q: Which results are given for FSRENLSKDLYLISQMDSDQFIPI [LARP4]?
A: protein stability index (treatment: DMSO): 2.17 ± 0.45; protein stability index (treatment: MLN4924 1 uM, 8 h): 2.13 ± 0.36

Q: With AEEESSGGEEEDEDENIEVVYSKA [EIF5] as the sequence, how does the protein stability index (treatment: DMSO) read?
A: 5.22 ± 0.17

Q: What about the protein stability index (treatment: MLN4924 1 uM, 8 h) of the same sequence?
A: 5.25 ± 0.16

Q: What does the source list for ILINNGSRIKGWWVFHHYVSTFLS [TMEM120A]?
A: protein stability index (treatment: DMSO): 2.17 ± 0.64; protein stability index (treatment: MLN4924 1 uM, 8 h): 2.38 ± 0.42

Q: For WKYALDMQQSNLDPLSPMTASSLL [FEM1C], which protein stability index (treatment: DMSO) is on record?
A: 2.68 ± 0.19

Q: What about the protein stability index (treatment: MLN4924 1 uM, 8 h) of the same sequence?
A: 2.84 ± 0.42

Q: Which results are given for CNLWDSHHPEVPQRILRIMCRLEE [HDAC6]?
A: protein stability index (treatment: DMSO): 2.55 ± 0.16; protein stability index (treatment: MLN4924 1 uM, 8 h): 2.35 ± 0.28

Q: For EEETYKCLECGKSFCHGSSLKRHL [ZNF449], which protein stability index (treatment: DMSO) is on record?
A: 3.77 ± 0.5

Q: What about the protein stability index (treatment: MLN4924 1 uM, 8 h) of the same sequence?
A: 3.78 ± 0.79

Q: What does the source list for PDPSHSPSDKVGRADAHLGSSSVA [TOR1AIP2]?
A: protein stability index (treatment: DMSO): 4.98 ± 0.37; protein stability index (treatment: MLN4924 1 uM, 8 h): 4.68 ± 0.95

Q: For EKDRIKSFTTNEKAILEQNFRDLV [TRIM29], which protein stability index (treatment: DMSO) is on record?
A: 3.53 ± 0.27

Q: What about the protein stability index (treatment: MLN4924 1 uM, 8 h) of the same sequence?
A: 3.82 ± 0.43

Q: Which protein stability index (treatment: DMSO) does the source give for NCLTGEGEDTRLSASEMKQLIDNI [CIB1] here?
A: 4.67 ± 0.18

Q: And the protein stability index (treatment: MLN4924 1 uM, 8 h)?
A: 4.74 ± 0.32

Q: With GLSLTDESDSCVSFEAPLTPLIQQ [PSD2] as the sequence, how does the protein stability index (treatment: DMSO) read?
A: 4.29 ± 0.35

Q: And the protein stability index (treatment: MLN4924 1 uM, 8 h)?
A: 4.15 ± 0.29

Q: Which results are given for GALETRSLKDHKVSFLRSGTKLIF [C2CD2L]?
A: protein stability index (treatment: DMSO): 2.13 ± 0.24; protein stability index (treatment: MLN4924 1 uM, 8 h): 2.1 ± 0.42

Q: With YVERKNSLKKGSLVKNLKDTLGLG [NCK2] as the sequence, how does the protein stability index (treatment: DMSO) read?
A: 2.85 ± 0.34

Q: What about the protein stability index (treatment: MLN4924 1 uM, 8 h) of the same sequence?
A: 3.13 ± 0.28

Q: Which protein stability index (treatment: DMSO) does the source give for DSNSGCLGDTQFCFRFRQSSGRRV [DENND6A] here?
A: 3.24 ± 0.35

Q: What about the protein stability index (treatment: MLN4924 1 uM, 8 h) of the same sequence?
A: 3.06 ± 0.52

Q: Which protein stability index (treatment: DMSO) does the source give for VEGKCLQSGFEMLKDVKSTLEKCE [TRIM39] here?
A: 4.31 ± 0.21

Q: And the protein stability index (treatment: MLN4924 1 uM, 8 h)?
A: 4.41 ± 0.19

Q: What does the source list for KDRASPADLRTNHTLNNLVEKLLR [TRIM35]?
A: protein stability index (treatment: DMSO): 2.44 ± 0.27; protein stability index (treatment: MLN4924 1 uM, 8 h): 2.48 ± 0.13

Q: For LWEAEDRQNVPRKVPNHYIAIPEW [CPXM2], which protein stability index (treatment: DMSO) is on record?
A: 3 ± 0.31

Q: And the protein stability index (treatment: MLN4924 1 uM, 8 h)?
A: 3.02 ± 0.32

Q: Which protein stability index (treatment: DMSO) does the source give for EDTPSDNDSGICMSPESYLGSPQH [ATF4] here?
A: 4.66 ± 0.36

Q: What about the protein stability index (treatment: MLN4924 1 uM, 8 h) of the same sequence?
A: 4.83 ± 0.22

Q: For MQERVQRLEAARLSLEEELSRVKA [LRRC45], which protein stability index (treatment: DMSO) is on record?
A: 4.25 ± 0.5

Q: And the protein stability index (treatment: MLN4924 1 uM, 8 h)?
A: 4.48 ± 0.27
